# Measured values published in US20020164690A1.
# pKd: −log10 of the molar value.
# Assays:
# [1] = molecular target: CNTFRα:β1 (CNTFRα and gp130) on PC12D cells (UniProt Q08406); experiment: Scatchard analysis of 125I-CNTF saturation binding on PC12D cells, two-site fit; high affinity site, interpreted as the intermediate of CNTF, CNTFRα and gp130
# [2] = molecular target: CNTF receptor on EW-1 cells (CNTFRα, gp130 and LIFRβ) (UniProt P26992); experiment: Scatchard analysis on EW-1 cells, two-site fit; site not assigned in words
# CNTFRα on PC12D cells = CNTFRα on PC12D cells (UniProt Q08406); experiment: Scatchard analysis of 125I-CNTF saturation binding on PC12D cells, two-site fit; low affinity site, said to correspond to CNTF with CNTFRα
# [3] = molecular target: recombinant human IL-1 (human); experiment: cell-based or functional assay
# human IL-13 (human) = human IL-13 (human) (UniProt P35225); experiment: cell-based or functional assay
# human IL-4 (human) = human IL-4 (human) (UniProt P05112); experiment: cell-based or functional assay
# Sequence of human IL-4 (human) (P05112 25-153 limits assumed): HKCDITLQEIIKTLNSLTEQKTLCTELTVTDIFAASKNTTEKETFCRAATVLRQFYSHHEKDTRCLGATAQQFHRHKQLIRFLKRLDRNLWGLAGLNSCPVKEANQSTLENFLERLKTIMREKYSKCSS
# Sequence of human IL-13 (human) (P35225 35-146 limits assumed): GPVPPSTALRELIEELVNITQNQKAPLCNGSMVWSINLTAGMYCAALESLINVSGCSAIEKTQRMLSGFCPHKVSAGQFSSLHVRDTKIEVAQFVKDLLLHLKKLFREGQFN
# Sequence of IL-1-RI.Fc (P14778 18-336): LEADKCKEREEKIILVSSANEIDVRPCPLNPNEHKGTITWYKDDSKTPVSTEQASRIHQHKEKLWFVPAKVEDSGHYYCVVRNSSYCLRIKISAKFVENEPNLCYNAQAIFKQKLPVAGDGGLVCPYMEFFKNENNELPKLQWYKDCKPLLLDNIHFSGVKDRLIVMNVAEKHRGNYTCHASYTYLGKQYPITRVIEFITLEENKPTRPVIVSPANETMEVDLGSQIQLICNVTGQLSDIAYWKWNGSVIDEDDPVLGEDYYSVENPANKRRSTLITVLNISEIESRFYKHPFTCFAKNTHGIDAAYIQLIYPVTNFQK
# Sequence of CNTF receptor on EW-1 cells (CNTFRα, gp130 and LIFRβ) (P26992 23-342 limits assumed, chain 1 of 3): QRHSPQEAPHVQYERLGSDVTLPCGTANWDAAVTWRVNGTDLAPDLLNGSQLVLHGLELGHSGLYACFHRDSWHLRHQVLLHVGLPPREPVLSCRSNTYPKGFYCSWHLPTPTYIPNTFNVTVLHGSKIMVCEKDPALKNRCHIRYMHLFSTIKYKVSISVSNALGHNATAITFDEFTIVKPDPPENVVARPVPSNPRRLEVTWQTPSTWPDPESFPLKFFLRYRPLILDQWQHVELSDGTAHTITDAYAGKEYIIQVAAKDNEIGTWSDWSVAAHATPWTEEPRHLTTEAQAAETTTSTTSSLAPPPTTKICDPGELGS
# Sequence of CNTF receptor on EW-1 cells (CNTFRα, gp130 and LIFRβ) (P40189 23-918 limits assumed, chain 2 of 3, further chain): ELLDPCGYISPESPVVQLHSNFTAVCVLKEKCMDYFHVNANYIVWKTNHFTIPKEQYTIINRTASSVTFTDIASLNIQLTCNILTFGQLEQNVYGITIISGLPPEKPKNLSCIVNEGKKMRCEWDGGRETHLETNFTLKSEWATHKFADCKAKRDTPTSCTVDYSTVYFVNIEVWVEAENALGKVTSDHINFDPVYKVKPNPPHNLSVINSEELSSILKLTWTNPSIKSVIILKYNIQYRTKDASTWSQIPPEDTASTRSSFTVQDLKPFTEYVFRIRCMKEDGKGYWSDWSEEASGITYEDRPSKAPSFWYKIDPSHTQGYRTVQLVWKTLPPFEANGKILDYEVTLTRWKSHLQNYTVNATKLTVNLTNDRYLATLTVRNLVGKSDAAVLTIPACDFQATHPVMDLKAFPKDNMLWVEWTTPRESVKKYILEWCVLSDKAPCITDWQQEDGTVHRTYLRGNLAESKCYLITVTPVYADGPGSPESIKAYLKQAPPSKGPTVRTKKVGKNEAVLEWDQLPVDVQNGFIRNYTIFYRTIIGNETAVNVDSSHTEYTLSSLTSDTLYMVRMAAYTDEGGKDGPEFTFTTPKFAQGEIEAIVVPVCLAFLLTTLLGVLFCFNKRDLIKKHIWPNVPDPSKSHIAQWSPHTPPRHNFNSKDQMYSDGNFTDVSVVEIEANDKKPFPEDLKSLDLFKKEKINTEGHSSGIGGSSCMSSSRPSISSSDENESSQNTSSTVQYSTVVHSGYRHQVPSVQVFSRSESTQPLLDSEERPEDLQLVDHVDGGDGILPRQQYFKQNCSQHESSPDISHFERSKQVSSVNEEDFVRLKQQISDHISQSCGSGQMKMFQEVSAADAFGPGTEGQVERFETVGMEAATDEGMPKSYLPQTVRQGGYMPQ
# Sequence of CNTF receptor on EW-1 cells (CNTFRα, gp130 and LIFRβ) (P42702 45-1097 limits assumed, chain 3 of 3, further chain): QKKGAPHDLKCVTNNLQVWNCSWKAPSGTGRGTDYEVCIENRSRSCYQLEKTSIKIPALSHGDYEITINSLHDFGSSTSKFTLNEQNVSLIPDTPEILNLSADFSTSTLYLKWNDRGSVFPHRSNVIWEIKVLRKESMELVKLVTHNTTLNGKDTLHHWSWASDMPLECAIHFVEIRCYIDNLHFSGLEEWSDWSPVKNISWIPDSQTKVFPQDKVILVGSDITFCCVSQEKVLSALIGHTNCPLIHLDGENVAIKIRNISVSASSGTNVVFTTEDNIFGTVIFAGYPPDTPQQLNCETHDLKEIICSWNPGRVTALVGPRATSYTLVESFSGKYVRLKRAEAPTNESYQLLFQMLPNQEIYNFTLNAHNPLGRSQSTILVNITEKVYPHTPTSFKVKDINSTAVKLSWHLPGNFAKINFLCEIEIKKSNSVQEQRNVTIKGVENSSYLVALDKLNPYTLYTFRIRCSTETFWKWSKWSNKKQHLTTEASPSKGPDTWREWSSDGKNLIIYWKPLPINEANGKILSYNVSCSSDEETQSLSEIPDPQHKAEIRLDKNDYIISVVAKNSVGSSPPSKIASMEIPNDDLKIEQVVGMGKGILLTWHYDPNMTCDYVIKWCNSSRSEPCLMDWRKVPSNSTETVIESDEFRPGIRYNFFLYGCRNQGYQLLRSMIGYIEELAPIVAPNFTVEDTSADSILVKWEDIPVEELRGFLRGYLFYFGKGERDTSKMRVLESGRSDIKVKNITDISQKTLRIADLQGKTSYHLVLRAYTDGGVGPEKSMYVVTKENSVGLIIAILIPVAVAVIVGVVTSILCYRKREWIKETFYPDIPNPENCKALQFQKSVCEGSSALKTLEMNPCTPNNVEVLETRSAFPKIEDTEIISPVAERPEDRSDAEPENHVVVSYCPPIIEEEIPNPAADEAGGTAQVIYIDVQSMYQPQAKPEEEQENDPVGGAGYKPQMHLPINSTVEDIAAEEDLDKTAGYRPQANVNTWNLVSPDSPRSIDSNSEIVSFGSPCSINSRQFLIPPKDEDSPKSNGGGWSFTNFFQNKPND
# Sequence of CNTFRα on PC12D cells (Q08406 23-342 limits assumed): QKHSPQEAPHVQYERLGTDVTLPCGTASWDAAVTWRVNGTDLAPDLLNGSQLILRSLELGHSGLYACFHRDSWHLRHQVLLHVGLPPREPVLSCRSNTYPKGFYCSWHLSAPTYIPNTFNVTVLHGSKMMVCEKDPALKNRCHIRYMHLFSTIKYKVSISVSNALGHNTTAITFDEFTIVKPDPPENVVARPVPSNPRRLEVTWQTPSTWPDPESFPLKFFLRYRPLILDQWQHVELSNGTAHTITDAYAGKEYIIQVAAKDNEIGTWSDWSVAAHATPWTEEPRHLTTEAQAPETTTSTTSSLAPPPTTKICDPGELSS
# Sequence of CNTFRα:β1 (CNTFRα and gp130) on PC12D cells (Q08406 23-342 limits assumed, chain 1 of 2): as the sequence (Q08406 23-342 limits assumed) above
# Sequence of CNTFRα:β1 (CNTFRα and gp130) on PC12D cells (P40190 23-918 limits assumed, chain 2 of 2, further chain): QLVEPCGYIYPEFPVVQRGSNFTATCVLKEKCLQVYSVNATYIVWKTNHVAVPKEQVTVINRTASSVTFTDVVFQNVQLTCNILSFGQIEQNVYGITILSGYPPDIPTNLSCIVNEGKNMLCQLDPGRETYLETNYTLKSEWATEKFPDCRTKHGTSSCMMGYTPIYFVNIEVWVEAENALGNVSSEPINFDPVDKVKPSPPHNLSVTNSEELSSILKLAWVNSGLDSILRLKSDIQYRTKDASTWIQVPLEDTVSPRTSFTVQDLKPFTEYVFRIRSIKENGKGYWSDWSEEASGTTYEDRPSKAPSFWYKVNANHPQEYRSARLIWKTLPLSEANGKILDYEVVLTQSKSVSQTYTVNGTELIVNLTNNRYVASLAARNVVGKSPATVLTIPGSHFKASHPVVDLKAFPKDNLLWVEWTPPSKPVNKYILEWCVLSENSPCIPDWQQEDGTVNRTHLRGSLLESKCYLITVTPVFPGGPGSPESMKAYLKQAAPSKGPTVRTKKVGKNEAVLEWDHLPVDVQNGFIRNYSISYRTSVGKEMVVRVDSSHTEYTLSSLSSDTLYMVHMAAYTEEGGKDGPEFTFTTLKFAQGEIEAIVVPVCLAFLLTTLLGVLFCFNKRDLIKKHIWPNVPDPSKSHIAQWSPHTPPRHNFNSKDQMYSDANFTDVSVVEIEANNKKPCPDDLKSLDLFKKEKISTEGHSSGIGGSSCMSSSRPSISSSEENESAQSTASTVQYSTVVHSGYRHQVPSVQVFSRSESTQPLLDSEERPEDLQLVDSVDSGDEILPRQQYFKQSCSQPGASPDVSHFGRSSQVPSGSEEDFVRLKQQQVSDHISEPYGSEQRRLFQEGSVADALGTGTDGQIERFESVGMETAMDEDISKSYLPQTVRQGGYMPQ
substance,measurement,setting,value
125I-CNTF (ligand),pKd,[1],11.05
same,pKd,[2],9.00
same,pKd,CNTFRα on PC12D cells,8.47
IL-1-RI.Fc (from UniProt P14778 18-336) (Fc fusion),IL-1-dependent production of IL-6 by MRC5 cells: IL-1 concentration blocked,[3],10 to 20 pM
IL-4/IL-13 Trap 1132 (from UniProt P24394 26-232; P78552 27-343) (Fc fusion),TF1 bioassay: activity against IL-4/IL-13 Trap 943 (fold (against Trap 943)),human IL-13 (human),2 to 3
IL-4Rα.IL-13Rα1.Fc (from UniProt P24394 26-232; P78552 22-343) (Fc fusion),TF1 bioassay: IL-13 concentration at which growth is inhibited by 50% (10 nM trap),human IL-13 (human),4 to 5 nM
same,TF1 bioassay: IL-13 concentration up to which 10 nM trap blocks growth,human IL-13 (human),2 nM
IL-13Rα1.IL-4Rα.Fc (from UniProt P78552 22-343; P24394 26-232) (Fc fusion),TF1 bioassay: IL-4 concentration at which growth is inhibited by 50% (10 nM trap),human IL-4 (human),3 to 4 nM
same,TF1 bioassay: IL-4 concentration up to which 10 nM trap blocks growth,human IL-4 (human),1 nM
same,TF1 bioassay: IL-13 concentration at which growth is inhibited by 50% (10 nM trap),human IL-13 (human),4 to 5 nM
same,TF1 bioassay: IL-13 concentration up to which 10 nM trap blocks growth,human IL-13 (human),2 nM
